Data published in patent US9266939B2, “Compositions comprising natriuretic peptides and methods of use thereof” (Alexion Pharmaceuticals, Inc., priority 2010, dated 2016).

How the values were obtained:
NPR-B = molecular target: T1, NPR-B (Homo sapiens, UniProt P20594); experiment: Membrane guanylyl cyclase (cGMP) assay, NPR-B; assay type: biochemical; conditions: second NPR-B membrane assay (FIG. 21B)
T1 sequence (P20594 23-1047): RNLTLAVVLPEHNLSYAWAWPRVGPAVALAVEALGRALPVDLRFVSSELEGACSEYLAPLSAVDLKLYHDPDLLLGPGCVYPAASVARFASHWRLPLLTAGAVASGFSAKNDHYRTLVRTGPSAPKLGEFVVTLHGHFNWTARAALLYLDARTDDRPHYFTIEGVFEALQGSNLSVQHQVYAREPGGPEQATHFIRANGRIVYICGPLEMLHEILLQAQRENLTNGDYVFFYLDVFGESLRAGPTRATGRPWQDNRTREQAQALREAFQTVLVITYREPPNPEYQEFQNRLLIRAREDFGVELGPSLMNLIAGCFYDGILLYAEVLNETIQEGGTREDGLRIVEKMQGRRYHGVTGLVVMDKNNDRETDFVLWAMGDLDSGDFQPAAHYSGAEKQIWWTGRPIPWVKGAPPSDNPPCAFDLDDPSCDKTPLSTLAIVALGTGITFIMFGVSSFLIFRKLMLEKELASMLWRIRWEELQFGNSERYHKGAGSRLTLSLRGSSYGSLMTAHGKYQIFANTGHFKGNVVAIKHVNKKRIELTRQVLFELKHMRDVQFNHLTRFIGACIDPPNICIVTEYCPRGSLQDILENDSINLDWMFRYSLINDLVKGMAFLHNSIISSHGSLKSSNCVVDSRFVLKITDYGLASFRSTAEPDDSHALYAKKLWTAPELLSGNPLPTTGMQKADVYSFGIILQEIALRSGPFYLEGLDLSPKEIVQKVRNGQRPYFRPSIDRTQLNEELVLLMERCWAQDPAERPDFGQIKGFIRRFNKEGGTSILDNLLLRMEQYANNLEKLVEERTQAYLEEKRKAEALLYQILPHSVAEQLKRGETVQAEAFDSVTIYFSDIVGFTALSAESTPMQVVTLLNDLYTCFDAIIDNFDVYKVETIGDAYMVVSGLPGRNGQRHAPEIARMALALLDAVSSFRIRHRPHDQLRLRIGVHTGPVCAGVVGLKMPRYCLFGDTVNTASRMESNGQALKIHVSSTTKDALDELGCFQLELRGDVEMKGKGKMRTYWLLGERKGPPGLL

[1] = In vivo pharmacokinetic study of NC2st administered IV or SC in C57BL/6 mice; conditions: male mice; for AUClast: 20 mg/kg single dose, serum
Protocol: NC2st was formulated at a concentration of 5.79 mg/mL in 25 mM sodium phosphate pH 7.4, 150 mM NaCl. The animals received NC2st as a single IV or SC dose (20 mg/kg) as described in Table 3 below. Injections were scheduled between 7:00 and 10:15 AM. Each mouse was injected with test article subcutaneously into the scapular region or immobilized in a rodent restrainer and injected with the test article as an intravenous bolus via the caudal vein. […] The animals received only one dose before scheduled blood collection and sacrifice. Individual body weights were assessed before scheduled test article injection and the volume of test article administered was based on body weight determination. Blood samples (0.1 to 0.12 mL) were collected via a jugular vein under isoflurane anesthesia at different time points. At the last time point, blood samples were collected by cardiac puncture under isoflurane anesthesia. Blood samples were collected into Microvette 200Z/gel tube (Sarstedt, serum/gel clotting activator, #20.1291), incubated at room temperature for 30 to 60 minutes, and centrifuged at 10,000×g for five minutes at 2-8° C. Serum was then transferred into a fresh 0.5 mL tube (Sarstedt, #72.699), snap-frozen in liquid nitrogen, and stored at -80° C. until analysis. […] Formulated NC2st protein spiked in serum served as a standard. Pharmacokinetic profiles were derived from the concentration measured by EIA. A non-compartmental analysis (NCA) was used to calculate the pharmacokinetic parameters of testing compound. […] NCA Model 200 was selected for extravascular input or Model 201 for IV-Bolus input using sparse sampling analysis module for both models. The following non-compartmental PK parameters were calculated: • Area under the curve from time zero to the last detectable concentration (AUClast), calculated using the linear trapezoidal (linear interpolation); • Area under the curve from time zero to infinity (AUC∞) calculated [NT]λz (where λz=slope of the terminal phase of the serum concentration vs time curve); • Maximum observed serum concentration (Cmax), time of maximum serum concentration (Tmax); • Terminal elimination half-life (T1/2, calculated as 0.693/λz); • Systemic clearance (CL) was calculated as Dose/AUC∞ and • Total volume of distribution (Vss) was calculated using CL×MRT, where MRT is the mean residence time. Absolute bioavailability (F %) between routes was calculated using the following formula: [AUC∞ (sc)/Dose(sc)]/[AUC∞ (iv)/Dose(iv)]×100. Nominal times were used in the calculations and times are set relative to start of dosing. Nominal doses were used for the calculation of CL.

efficacy relative to CNP (NPR-B): 61%
potency relative to CNP (times less than that of CNP) (NPR-B): 19 times
Substance: NC2st: Fc-CNP fusion: Strep-tag II, TEV site, human IgG-1 Fc, 16-amino acid glycine-rich linker, CNP22; SEQ ID NO: 502
AUC∞ ([1]; IV, 20 mg/kg): 28,563 hr · nmol/L
CL ([1]; IV, 20 mg/kg): 0.187 mL/min/kg
Cmax ([1]; IV, 20 mg/kg): 2100 nM
Half-life ([1]; IV, 20 mg/kg): 10.6 h
Tmax ([1]; IV, 20 mg/kg): 1.00 h
Vss ([1]; IV, 20 mg/kg): 0.173 L/kg
AUClast ([1]; IV): 27,587 hr · nmol/L
increase of SC half-life over intravenous CNP22 ([1]; SC): approximately 340 fold
Bioavailability ([1]; SC vs IV, 20 mg/kg): 68.5%
AUC∞ ([1]; SC, 20 mg/kg): 19,592 hr · nmol/L
CL_F ([1]; SC, 20 mg/kg): 0.272 mL/min/kg
Cmax ([1]; SC, 20 mg/kg): 798 nM
Half-life ([1]; SC, 20 mg/kg): 14.3 h
Tmax ([1]; SC, 20 mg/kg): 6.00 h
Vss_F ([1]; SC, 20 mg/kg): 0.353 L/kg
AUClast ([1]; SC): 17,735 hr · nmol/L
